Results taken from patent US12129308 (Merck KGaA, dated 2024).
Numbering of substitutions follows the chain as printed. Like-named read-outs stand apart in the source and are kept apart here.

B1: C0101PMP519E04 (VHH)
VHH: DVQLVESGGGLVQPGGSLRLSCVASGPTFSDYAMGWFRQAPGKEREFVAAISWSGGSTYYADSVKGRFTISRDNSKNTVYLQMNSLRPEDTAVYYCTAARGGGYRASGGPLSEYNYWGQGTLVTVSS
notes: Profile 2 Nanobody
B2: C0101PMP520B06 (VHH)
VHH: DVQLVESGGGLVQPGGSLRLSCAASGRTFSSYAMGWFRQAPGKEREFVAAISWGGGSTYYSDSVKGRFTISRDNSKNTVYLQMNSLRPEDTAVYYCTAALGSTGSGSTPVPEYRYWGQGTLVTVSS
notes: Profile 2 Nanobody
B3: C0101PMP529C12 (VHH)
VHH: DVQLVESGGGLVQPGGSLRLSCVASGSIFSINAMGWYRQAPGKQRELVAAISSGGSTYYADSVKGRFTISRDNSKNTVYLQMNSLRPEDTAVYYCNAAVDASRGLPYELYYYWGQGTLVTVSS
notes: Profile 2 Nanobody; also called C0101529C12
B4: 62C02-40E09 clone 72 (bispecific antibody)
chain: EVQLVESGGALVRPGGSLRLSCAASGFAFSAAYMSWVRQAPGRGLEWVSSISDDGSKTYYADSVKGRFTISRDNAKNTVYLQMNNLKPDDTAVYYCNTGYGATTTRPGRYWGQGTLVTVSSGGGGSGGGGSGGGGSGGGGSGGGGSGGGGSGGGGSEVQLVESGGGSVQAGGSLRLSCAASGSTFSRYSMNWYRQAPGKQREFVAGISVGRITNYAVSVRGRFTISRDNAEGTGYLQMNSLKPEDTAVYYCNAGGLQGYWGLGTLVTVSS
B5: 517A01-40E09 clone 80 (bispecific antibody)
chain: EVQLVESGGGLVQPGGSLRLSCAASGRTFSSYAMGWFRQAPGKEREFVAAISWSGGSTYYADSVKGRFTISRDNSKNTVYLQMNSLRPEDTAVYYCTAALAVYGPNRYRYGPVGEYNYWGQGTLVTVSSGGGGSGGGGSGGGGSGGGGSGGGGSGGGGSGGGGSEVQLVESGGGSVQAGGSLRLSCAASGSTFSRYSMNWYRQAPGKQREFVAGISVGRITNYAVSVRGRFTISRDNAEGTGYLQMNSLKPEDTAVYYCNAGGLQGYWGLGTLVTVSS
B6: C010100683 (bispecific antibody)
chain: EVQLVESGGGLVQPGGSLRLSCAASGFAFSAAYMSWVRQAPGKGLEWVSSISDDGSKTYYADSVKGRFTISRDNSKNTVYLQMNSLRPEDTAVYYCNTGYGATTTRPGRYWGQGTLVTVSSGGGGSGGGGSGGGGSGGGGSGGGGSGGGGSGGGGSEVQLVESGGGLVQPGGSLRLSCAASGSTFIINVVRWYRRAPGKQRELVATISSGGNANYVDSVRGRFTISRDNSKNTVYLQMNSLRPEDTAVYYCNVPTTHYGGVYYGPYWGQGTLVTVSSGGGGSGGGGSGGGGSGGGGSGGGGSGGGGSGGGGSEVQLVESGGGLVQPGGSLRLSCAASGSTFIINVVRWYRRAPGKQRELVATISSGGNANYVDSVRGRFTISRDNSKNTVYLQMNSLRPEDTAVYYCNVPTTHYGGVYYGPYWGQGTLVTVSS
notes: MMP13-Aggrecan bispecific Nanobody construct; also called 62C02SO-114F08SO-114F08SO
B7: 40E09-62C02 clone 69 (bispecific antibody)
chain: EVQLVESGGGSVQAGGSLRLSCAASGSTFSRYSMNWYRQAPGKQREFVAGISVGRITNYAVSVRGRFTISRDNAEGTGYLQMNSLKPEDTAVYYCNAGGLQGYWGLGTLVTVSSGGGGSGGGGSGGGGSGGGGSGGGGSGGGGSGGGGSEVQLVESGGALVRPGGSLRLSCAASGFAFSAAYMSWVRQAPGRGLEWVSSISDDGSKTYYADSVKGRFTISRDNAKNTVYLQMNNLKPDDTAVYYCNTGYGATTTRPGRYWGQGTLVTVSS
B8: 40E09-517A01 clone 71 (bispecific antibody)
chain: EVQLVESGGGSVQAGGSLRLSCAASGSTFSRYSMNWYRQAPGKQREFVAGISVGRITNYAVSVRGRFTISRDNAEGTGYLQMNSLKPEDTAVYYCNAGGLQGYWGLGTLVTVSSGGGGSGGGGSGGGGSGGGGSGGGGSGGGGSGGGGSEVQLVESGGGLVQPGGSLRLSCAASGRTFSSYAMGWFRQAPGKEREFVAAISWSGGSTYYADSVKGRFTISRDNSKNTVYLQMNSLRPEDTAVYYCTAALAVYGPNRYRYGPVGEYNYWGQGTLVTVSS
B9: 516G08-40E09 clone 76 (bispecific antibody)
chain: EVQLVESGGGLVQPGGSLRLSCAGSGSIFRINVMAWYRQAPGKQRELVAAITSGGTTNYADSVKGRFTISRDNSKNTVYLQMNSLRPEDTAVYYCYADIGWPYVLDYDFWGQGTLVTVSSGGGGSGGGGSGGGGSGGGGSGGGGSGGGGSGGGGSEVQLVESGGGSVQAGGSLRLSCAASGSTFSRYSMNWYRQAPGKQREFVAGISVGRITNYAVSVRGRFTISRDNAEGTGYLQMNSLKPEDTAVYYCNAGGLQGYWGLGTLVTVSS
B10: 40E09-516G08 clone 70 (bispecific antibody)
chain: EVQLVESGGGSVQAGGSLRLSCAASGSTFSRYSMNWYRQAPGKQREFVAGISVGRITNYAVSVRGRFTISRDNAEGTGYLQMNSLKPEDTAVYYCNAGGLQGYWGLGTLVTVSSGGGGSGGGGSGGGGSGGGGSGGGGSGGGGSGGGGSEVQLVESGGGLVQPGGSLRLSCAGSGSIFRINVMAWYRQAPGKQRELVAAITSGGTTNYADSVKGRFTISRDNSKNTVYLQMNSLRPEDTAVYYCYADIGWPYVLDYDFWGQGTLVTVSS
B11: C0101PMP062C02 (VHH)
VHH: EVQLVESGGALVRPGGSLRLSCAASGFAFSAAYMSWVRQAPGRGLEWVSSISDDGSKTYYADSVKGRFTISRDNAKNTVYLQMNNLKPDDTAVYYCNTGYGATTTRPGRYWGQGTQVTVSS
notes: Profile 2 Nanobody; also called C0101062C02
B12: C0101PMP521F02 (VHH)
VHH: DVQLVESGGGLVQPGGSLRLSCVASGLTFSSYAMGWFRQAPGKEREFVAAISWSGGRTYYADSVKGRFTISRDNSKNTVYLQMNSLRPEDTAVYYCTAARGPGSVGPSEEYNYWGQGTLVTVSS
notes: Profile 2 Nanobody
B13: C0101PMP516G08 (VHH)
VHH: DVQLVESGGGLVQPGGSLRLSCAGSGSIFRINVMAWYRQAPGKQRELVAAITSGGTTNYADSVKGRFTISRDNSKNTVYLQMNSLRPEDTAVYYCYADIGWPYVLDYDFWGQGTLVTVSS
notes: Profile 2 Nanobody; also called C0101516G08
B14: C0101PMP529G11 (VHH)
VHH: B13 VHH with G24A, V33A, A35G, T52I, N58Y
notes: Profile 2 Nanobody
B15: C0101PMP063F01 (VHH)
VHH: EVQLVESGGGLVQPGGSLRLSCSASTGIFRINTMGWHRQAPGKQRDLVATFTSDDNTKYADSVKGRFTISRDNAENTVYLQMNDLKPEDTAVYYCHATTVMYDSNSPDYWGQGTQVTVSS
notes: Profile 2 Nanobody

Assays:
cynomolgus MMP13 = cynomolgus MMP13 (cynomolgus, UniProt A0A2K5U988 104-471); experiment: cell-based or functional assay
activated rat MMP13 [1] = target: T1, activated rat MMP13 (rat, UniProt P23097 99-466); experiment: cell-based or functional assay
activated dog MMP13 = activated dog MMP13 (dog, UniProt P45452 104-471 (human entry)); experiment: cell-based or functional assay
bovine MMP13 = bovine MMP13 (bovine, UniProt O77656 104-471); experiment: cell-based or functional assay
activated human MMP13 [2] = target: T2, activated human MMP13 (human, UniProt P45452 104-471); experiment: cell-based or functional assay
[3] = target: T3, activated MMP13 (species not stated) (Homo sapiens (Human), UniProt P45452 104-471, Biotinylated in the TIMP-2 competition ELISA (sites not given). Activated form: pro-peptide removed.); experiment: TIMP-2 competition ELISA; Nanobody pre-incubated with 1.26 nM activated MMP13-biotin, binding to captured TIMP-2
T3 construct: campaign 4 ELISA; Probably human

activated rat MMP13 [4] = target: T1, activated rat MMP13; experiment: cell-based or functional assay; remark: listed apart in the source
activated human MMP13 [5] = target: T2, activated human MMP13; experiment: cell-based or functional assay; remark: listed apart in the source
Aggrecan = target: T4, Aggrecan; experiment: competition ELISA (CAP) on Aggrecan; competitor not stated
T4 construct: also called CAP

activated human MMP13 [6] = target: T2, activated human MMP13; experiment: cell-based or functional assay; remark: listed apart in the source

Binder | IC50, cyno fluorogenic peptide assay (cynomolgus MMP13) | IC50, rat fluorogenic peptide assay (activated rat MMP13 [1]) | IC50, dog fluorogenic peptide assay (activated dog MMP13) | IC50, bovine fluorogenic peptide assay (bovine MMP13) | IC50, human fluorogenic collagen assay (activated human MMP13 [2]) | IC50, human fluorogenic peptide assay (activated human MMP13 [2]) | IC50 [3] | IC50, (adapted) rat fluorogenic peptide assay (activated rat MMP13 [4]) | IC50, human fluorogenic collagen assay (activated human MMP13 [5]) | IC50 (Aggrecan) | potency, human fluorogenic peptide assay (activated human MMP13 [6]) | IC50, human collagenolytic assay (activated human MMP13 [2])
B1 | 7.2 nM | 3 nM | 7 nM | 17.1 nM | 24.8 nM | 9.5 nM | 5.5 nM |  |  |  |  | 
B2 | 9.5 nM | 7.8 nM | 17.3 nM | 27.7 nM | 27.5 nM | 13.4 nM | 9.3 nM |  |  |  |  | 
B3 | 0.7 nM | 0.2 nM | 0.2 nM | 1.2 nM | 4.9 nM | 1.2 nM | 0.4 nM |  |  |  |  | 
B4 |  |  |  |  |  |  |  | 0.1 nM | 2.4 nM |  |  | 
B5 |  |  |  |  |  |  |  | 0.13 nM | 4.06 nM |  |  | 
B6 |  |  |  |  |  |  |  |  |  | 0.23 nM | 0.953 nM | 
B7 |  |  |  |  |  |  |  | 1.12 nM |  |  |  | 
B8 |  |  |  |  |  |  |  | 0.11 nM | 6.5 nM |  |  | 
B9 |  |  |  |  |  |  |  | 0.16 nM | 3.55 nM |  |  | 
B10 |  |  |  |  |  |  |  | 0.12 nM | 2.9 nM |  |  | 
B11 | 1.4 nM | 1.1 nM | 1 nM | 3.1 nM | 8.3 nM | 1.4 nM | 0.9 nM | 2.88 nM | 8.32 nM |  |  | 1.4 nM
B12 | 7 nM | 2.1 nM | 5.5 nM | 16.1 nM | 20.7 nM | 7.2 nM | 8.5 nM |  |  |  |  | 
B13 | 0.4 nM | 5.2 nM | 4.4 nM | 1.5 nM | 3.8 nM | 0.8 nM | 0.5 nM | 4.98 nM | 3.78 nM |  |  | 0.9 nM
B14 | 7.1 nM | 80.6 nM | 39.1 nM | 20.1 nM | 17.9 nM | 10.3 nM | 7.9 nM |  |  |  |  | 
B15 | 108 nM | 20.2 nM | 73.9 nM | 191 nM | 134 nM | 82.4 nM | 177 nM |  |  |  |  | 
